Results on 36 sequences are retold here after the supplement of paper PMC10567573.

± gives the standard deviation.

A short description of this data set: protein stability index of a GFP-peptide fusion (GPS, HEK-293T) (PSI 1-6); higher = more stable. The conditions noted are these: c terminus: a fixed tail appended.
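Further: 24-mer peptide tiles fused after GFP, lentivirally expressed, FACS-sorted into six equal bins by GFP/DsRed ratio, decoded by Illumina sequencing, PSI is the read-weighted mean bin number.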

Take MAAHLKKRVYEEFTKVVQPQEEIA [INTS4]: the protein stability index runs as follows: (treatment: DMSO) 3.67 ± 0.093; (treatment: MLN4924 1 uM, 8 h) 3.68 ± 0.7.
On the same counts, the results for MAAPPKAPIRVRNLTIRAGALTGK [DMRTC1] are 3.57 ± 0.33 and 3.73 ± 0.22.
As for MADPWQECMDYAVTLARQAGEVVC [IMPA1], the protein stability index by setting is: (treatment: DMSO) 2.56 ± 0.44; (treatment: MLN4924 1 uM, 8 h) 2.37 ± 0.21.
On the same counts, the results for MAEASATGACGEAMAAAEGSSGPA [SEPHS2] are 5.44 ± 0.2 and 5.3 ± 0.17.
For MASVRIREAKEGDCGDILRLIREL [SAT2] the same measures were 3.01 ± 0.17 and 3.23 ± 0.37.
For MAVRPSLPESGLLSVLQIAQQDLA [FANCE] the same measures were 3.29 ± 0.28 and 3.53 ± 0.35.
Take MCPPVSMRYEEEGMSYLYASWMYQ [TEX19]: the protein stability index (treatment: DMSO) was determined as 2.3 ± 0.082 and the protein stability index (treatment: MLN4924 1 uM, 8 h) came to 2.11 ± 0.22.
The sequence MDDQGCPRCKTTKYRNPSLKLMVN [MNAT1] registered a protein stability index (treatment: DMSO) of 2.8 ± 0.16 and a protein stability index (treatment: MLN4924 1 uM, 8 h) of 3.21 ± 0.22.
Regarding MDSDMDYERPNVETIKCVVVGDNA [RHOBTB2], the protein stability index came out at 4.74 ± 0.21 (treatment: DMSO) and 4.87 ± 0.22 (treatment: MLN4924 1 uM, 8 h).
On the same counts, the results for MEAYLPKKNGLYLSLVLGNVNVTL [TMEM120A] are 3.28 ± 0.49 and 3.44 ± 0.35.
With MEEDKLLSAVPEEGDATRDPGPEP [PSD2], the protein stability index (treatment: DMSO) was found to be 5.54 ± 0.1 and the protein stability index (treatment: MLN4924 1 uM, 8 h) turned out to be 5.52 ± 0.16.
For MELLTNNLKFITDPFVCRLRHLSP [OR4A15] the same measures were 2.17 ± 0.22 and 2.58 ± 0.38.
On the same counts, the results for MEVPQPEPAPGSALSPAGVCGGAQ [CDC25B] are 5.25 ± 0.34 and 5.23 ± 0.33.
For MFGFFFGRTPLIKLSPKKTWEGFI [CDS2], the protein stability index turned out to be 2.38 ± 0.48 (treatment: DMSO) and 2.35 ± 0.49 (treatment: MLN4924 1 uM, 8 h).
For MGKSASKQFHNEVLKAHNEYRQKH [GLIPR2] the same measures were 3.94 ± 0.27 and 3.96 ± 0.28.
MGNSHCVPQAPRRLRASFSRKPSL [PLEKHN1] displayed a protein stability index (treatment: DMSO) of 3.66 ± 0.096 and a protein stability index (treatment: MLN4924 1 uM, 8 h) of 3.69 ± 0.11.
Take MKEPITKAEILESVIKNYEDHFPL [MAGEA10]: the protein stability index (treatment: DMSO) turned out to be 3.98 ± 0.31 and the protein stability index (treatment: MLN4924 1 uM, 8 h) was determined as 3.93 ± 0.38.
Sequence MKNEKLLSKASEPKYQLFVPQLVT [RNF180] registered a protein stability index (treatment: DMSO) of 2.69 ± 0.3 and a protein stability index (treatment: MLN4924 1 uM, 8 h) of 2.82 ± 0.24.
For MKRQNVRTLSLIVCTFTYLLVGAA [KCNK9] the same measures were 3.36 ± 0.22 and 2.95 ± 0.37.
As for MLDHHPVAITVEVKQEEDIKPPPP [RAD54B], the protein stability index reads like this: (treatment: DMSO) 5.08 ± 0.22; (treatment: MLN4924 1 uM, 8 h) 5.19 ± 0.1.
On the same counts, the results for MLGFRPYRFYFYMWKFVSPLCMAV [SLC6A17] are 2.27 ± 0.25 and 2.29 ± 0.68.
For MLLFLSVPQPRPPGARTRAGAARV [FBXO33] the same measures were 2.31 ± 0.26 and 2.13 ± 0.21.
For MPNVMTGTMGMAPLGNTPMMNQSM [CLINT1] the same measures were 3.68 ± 0.23 and 3.48 ± 0.27.
Consider MPRHNYHKVAPLVQSLCAKHGIEY [FADS1], for which the protein stability index reads like this: (treatment: DMSO) 2.64 ± 0.36; (treatment: MLN4924 1 uM, 8 h) 2.5 ± 0.36.
On the same counts, the results for MRDRHVNMHLNLRPFDCPVCNKKF [ZBTB22] are 2.99 ± 0.32 and 3.44 ± 0.55.
For the sequence MRQFLRGLDFLHANCIVHRDLKPE [CDK4], the protein stability index came to 2.21 ± 0.22 (treatment: DMSO) and 2.23 ± 0.13 (treatment: MLN4924 1 uM, 8 h).
For MTHQNVELFKELSINVMKQLIGSS [GMCL1] the same measures were 2.35 ± 0.21 and 2.37 ± 0.57.
For MTQLSSTLARCAKDILGFAVMFFI [PKD2L1] the same measures were 2.39 ± 0.37 and 2.28 ± 0.42.
On the same counts, the results for NAKLASDDFRSKYQTEQSLRLLVE [KRT34] are 3.16 ± 0.34 and 3.04 ± 0.49.
In the case of NDTNSFTVDCEPSDLFRLQEYNIP [CDS2], the protein stability index reads like this: (treatment: DMSO) 3.65 ± 0.16; (treatment: MLN4924 1 uM, 8 h) 3.74 ± 0.21.
For the sequence NEGLMKWENRHEGVFKFLRSEAVA [ELF3], the protein stability index by setting is: (treatment: DMSO) 3.01 ± 0.11; (treatment: MLN4924 1 uM, 8 h) 3.09 ± 0.22.
For the sequence NGMAIIRPPGHHAQHSLMDGYCMF [HDAC6], the protein stability index reads like this: (treatment: DMSO) 2.37 ± 0.17; (treatment: MLN4924 1 uM, 8 h) 2.21 ± 0.31.
As for NGPLGPSEASIASNLQAMSTQMFQ [SMG5], the protein stability index by setting is: (treatment: DMSO) 3.93 ± 0.18; (treatment: MLN4924 1 uM, 8 h) 3.95 ± 0.074.
As for NLEGNELQRHADEFLLDLGHHERS [FUT8], the protein stability index runs as follows: (treatment: DMSO) 4.84 ± 0.062; (treatment: MLN4924 1 uM, 8 h) 4.83 ± 0.31.
With NLPIIAKMAAVSKASGRFGLLQGT [SEPHS2], the protein stability index was 2.31 ± 0.18 (treatment: DMSO) and 2.25 ± 0.2 (treatment: MLN4924 1 uM, 8 h).
Consider NLQDTLEAASFLQILPVLDFCKVF [KLHL13], for which the protein stability index (treatment: DMSO) was determined as 2.73 ± 0.35 and the protein stability index (treatment: MLN4924 1 uM, 8 h) was found to be 2.63 ± 0.52.
